Results: US10772928B2, “Modulation and detection of a neuronal alternative splicing regulatory network for treatment and diagnosis of neurological disorders” (The Governing Council of the University of Toronto, priority 2014, dated 2020)

T1: nSR100 (Mus musculus, UniProt Q8BKA3)
T1 construct: host or cells: mouse N2A cells
T1 sequence (Q8BKA3 1-608): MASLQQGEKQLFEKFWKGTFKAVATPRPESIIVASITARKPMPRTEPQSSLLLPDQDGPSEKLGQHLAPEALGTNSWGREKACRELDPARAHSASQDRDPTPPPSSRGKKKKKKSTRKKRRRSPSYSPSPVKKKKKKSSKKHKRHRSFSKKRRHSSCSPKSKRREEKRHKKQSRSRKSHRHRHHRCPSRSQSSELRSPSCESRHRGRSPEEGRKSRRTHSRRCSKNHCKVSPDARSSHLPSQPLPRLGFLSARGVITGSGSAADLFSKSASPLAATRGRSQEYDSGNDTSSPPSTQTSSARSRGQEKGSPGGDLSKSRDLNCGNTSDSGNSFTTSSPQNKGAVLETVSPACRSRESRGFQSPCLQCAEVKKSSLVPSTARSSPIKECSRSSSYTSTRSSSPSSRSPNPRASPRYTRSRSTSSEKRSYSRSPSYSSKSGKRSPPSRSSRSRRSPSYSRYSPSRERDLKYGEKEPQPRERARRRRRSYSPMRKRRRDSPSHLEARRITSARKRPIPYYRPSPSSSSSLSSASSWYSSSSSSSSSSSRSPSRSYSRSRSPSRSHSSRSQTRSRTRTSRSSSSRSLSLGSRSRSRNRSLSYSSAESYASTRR


Biological target: T1, nSR100
Assay: AP-MS nSR100 interaction partners from mouse N2A cells (Table 5)
Format: binding
Details: for AvgP (average of the SAINT scores) / MaxP (maximal SAINT score): bait Srrm4; for FoldChange between the prey Avg spectra of the bait and control purifications: bait Srrm4, 0.1 added to prevent division by 0; for AvgSpec (average number of spectra per replicate): bait Srrm4, 2 replicates; for Spectra (number of spectra for the prey in the purification of the bait): AP-MS; for SpecSum: bait Srrm4, sum of spectra over 2 replicates
[1] = bait Srrm4, biological replicate 1 (first number of the cell)
[2] = bait Srrm4, biological replicate 2 (second number of the cell)

Text: By applying affinity purification coupled to mass-spectrometry (AP-MS), several interaction nSR100 partner proteins were detected that provide insight into mechanisms of post-translational regulation of nSR100 levels.

Molecule	AvgP (average of the SAINT scores)	MaxP (maximal SAINT score)	FoldChange between the prey Avg spectra of the bait and control purifications	AvgSpec (average number of spectra per replicate)	Spectra (number of spectra for the prey in the purification of the bait) [1]	Spectra (number of spectra for the prey in the purification of the bait) [2]	SpecSum
Ccnb2 (protein, UniProt P30276 1-398, looked up) G2/mitotic-specific cyclin-B2: MALLRRPTVSSDLKNIDTEVIPKAKSHVTIRRAVLEEIGNKVRNRTTQVAKKPQNTKVPALPTKVTNVNKQPKPTASVKPVQMEALAPKDRPPAPEDVSMKEESLCQAFSDALLCKIEDIDNEDRENPQLCSDYVKDIYQYLRQLEVLQSINPHFLDGRDINGRMRAILVDWLVQVHSKFRLLQETLYMCIAIMDRFLQAQLVCRKKLQLVGITALLLASKYEEMFSPNIEDFVYITDNAYTSSQIREMETLILKELKFELGRPLPLHFLRRASKAGEVDVEQHTLAKYLMELTLVDYDMVHYHPSQVAAAASCLSQKVLGQGKWNLKQQYYTGYMESEVLEVMQHMAKNVVKVNDNRTKFIAVKNKYASSRLLKISTIPQLNSKIIKDLASPLLGSP	1	1	60	6	4	8	12
Csnk2a1 (protein, UniProt Q60737 1-391, looked up) Casein kinase II subunit alpha: MSGPVPSRARVYTDVNTHRPREYWDYESHVVEWGNQDDYQLVRKLGRGKYSEVFEAINITNNEKVVVKILKPVKKKKIKREIKILENLRGGPNIITLADIVKDPVSRTPALVFEHVNNTDFKQLYQTLTDYDIRFYMYEILKALDYCHSMGIMHRDVKPHNVMIDHEHRKLRLIDWGLAEFYHPGQEYNVRVASRYFKGPELLVDYQMYDYSLDMWSLGCMLASMIFRKEPFFHGHDNYDQLVRIAKVLGTEDLYDYIDKYNIELDPRFNDILGRHSRKRWERFVHSENQHLVSPEALDFLDKLLRYDHQSRLTAREAMEHPYFYTVVKDQARMSSTSMAGGSTPVSSANMMSGISSVPTPSPLGPLAGSPVIAAANSLGIPVPAAAGAQQ	1	1	4.95	49.5	44	55	99
Ccnb1 (protein, UniProt P24860 1-430, looked up) G2/mitotic-specific cyclin-B1: MALRVTRNTKINAENKAKVSMAGAKRVPVTVTAASKPGLRPRTALGDIGNKVSEELQARVPLKREAKTLGTGKGTVKALPKPVEKVPVCEPEVELAEPEPEPELEHVREEKLSPEPILVDNPSPSPMETSGCAPAEEYLCQAFSDVILAVSDVDADDGADPNLCSEYVKDIYAYLRQLEEEQSVRPKYLQGREVTGNMRAILIDWLIQVQMKFRLLQETMYMTVSIIDRFMQNSCVPKKMLQLVGVTAMFIASKYEEMYPPEIGDFAFVTNNTYTKHQIRQMEMKILRVLNFSLGRPLPLHFLRRASKVGEVDVEQHTLAKYLMELSMLDYDMVHFAPSQIAAGAFCLALKILDNGEWTPTLQHYLSYSEDSLLPVMQHLAKNVVMVNCGLTKHMTVKNKYAASKHAKISTLAQLNCTLVQNLSKAVTKA	1	1	300	30	27	33	60
U2af1 (protein, UniProt Q9D883 2-239, looked up) Splicing factor U2AF 35 kDa …: AEYLASIFGTEKDKVNCSFYFKIGACRHGDRCSRLHNKPTFSQTIALLNIYRNPQNSSQSADGLRCAVSDVEMQEHYDEFFEEVFTEMEEKYGEVEEMNVCDNLGDHLVGNVYVKFRREEDAEKAVIDLNNRWFNGQPIHAELSPVTDFREACCRQYEMGECTRGGFCNFMHLKPISRELRRELYGRRRKKHRSRSRSRERRSRSRDRGRGGGGGGGGGGGRERDRRRSRDRERSGRF	1	1	4.6	23	22	24	46

Second part, the molecule after the results:

AvgP (average of the SAINT scores)	MaxP (maximal SAINT score)	FoldChange between the prey Avg spectra of the bait and control purifications	AvgSpec (average number of spectra per replicate)	Spectra (number of spectra for the prey in the purification of the bait) [1]	Spectra (number of spectra for the prey in the purification of the bait) [2]	SpecSum	Molecule
1	1	5.07	73.5	55	92	147	Puf60 (protein, UniProt Q3UEB3 1-564, looked up) Poly(U)-binding-splicing …: MATATIALQVNGQQGGGSEPAAAAAAAAAAVVAAGDKWKPPQGTESIKMENGQSTGTKLGLPPLTPEQQEALQKAKKYAMEQSIKSVLVKQTIAHQQQQLTNLQMAAVTMGFGDPLSPLQSMAAQRQRALAIMCRVYVGSIYYELGEDTIRQAFAPFGPIKSIDMSWDSVTMKHKGFAFVEYEVPEAAQLALEQMNSVMLGGRNIKVGRPSNIGQAQPIIDQLAEEARAFNRIYVASVHQDLSDDDIKSVFEAFGKIKSCTLARDPTTGKHKGYGFIEYEKAQSSQDAVSSMNLFDLGGQYLRVGKAVTPPMPLLTPATPGGLPPAAAVAAAAATAKITAQEAVAGAAVLGTLATPGLVSPALTLAQPLGALPQAVMAAQAPGVITGVTPARPPIPVTIPSVGVVNPILASPPTLGLLEPKKEKEEEELFPESERPEMLSEQEHMSISGSSARHMVMQKLLRKQESTVMVLRNMVDPKDIDDDLEGEVTEECGKFGAVNRVIIYQEKQGEEEDAEIIVKIFVEFSMASETHKAIQALNGRWFGGRKVVAEVYDQERFDNSDLSA
1	1	4.33	39	35	43	78	Luc7l2 (protein, UniProt Q7TNC4 1-392, looked up) Putative RNA-binding protein …: MSAQAQMRAMLDQLMGTSRDGDTTRQRIKFSDDRVCKSHLLNCCPHDVLSGTRMDLGECLKVHDLALRADYEIASKEQDFFFELDAMDHLQSFIADCDRRTEVSKKRLAETQEEISAEVAAKAERVHELNEEIGKLLAKVEQLGAEGNVEESQKVMDEVEKARAKKREAEEVYRNSMPASSFQQQKLRVCEVCSAYLGLHDNDRRLADHFGGKLHLGFIEIREKLEELKRVVAEKQEKRNQERLKRREEREREEREKLRRSRSHSKNPKRSRSREHRRHRSRSMSRERKRRTRSKSREKRHRHRSRSSSRSRSRSHQRSRHSSRDRSRERSKRRSSKERFRDQDLASRDRDRSSRDRSPRDRDRKDKKRSYESANGRSEDRRSSEEREAGEI
0.99	0.99	10.5	10.5	11	10	21	Sf3a3 (protein, UniProt Q9D554 1-501, looked up) Splicing factor 3A subunit 3: METILEQQRRYHEEKERLMDVMAKEMLTKKSTLRDQINSDHRTRAMQDRYMEVSGNLRDLYDDKDGLRKEELNAISGPNEFAEFYNRLKQIKEFHRKHPNEICVPMSVEFEELLKARENPSEEAQNLVEFTDEEGYGRYLDLHDCYLKYINLKASEKLDYITYLSIFDQLFDIPKERKNAEYKRYLEMLLEYLQDYTDRVKPLQDQNELFGKIQTDFEKKWDNGTFPGWPKETSSALTHAGAHLDLSAFSSWEELASLGLDRLKSALLALGLKCGGTLEERAQRLFSTKGKSLESLDTSLFAKNPKSKGTKRDTERNKDIAFLEAQIYEYVEILGEQRQLTHENVQRKQARTGEEREEEEEEQISESESEDEENEIIYNPKNLPLGWDGKPIPYWLYKLHGLNINYNCEICGNYTYRGPKAFQRHFAEWRHAHGMRCLGIPNTAHFANVTQIEDAVSLWAKLKLQKASERWQPDTEEEYEDSSGNVVNKKTYEDLKRQGLL
1	1	60	6	6|6	6|6	12	Prpf38b (protein, UniProt Q80SY5 2-542, looked up) Pre-mRNA-splicing factor 38B: ANNSPALTGNSQPQHQAAAAVTQQQQQCGGGGGATKPAVSGKQGNVLPLWGNEKTMNLNPMILTNILSSPYFKVQLYELKTYHEVVDEIYFKVTHVEPWEKGSRKTAGQTGMCGGVRGVGTGGIVSTAFCLLYKLFTLKLTRKQVMGLITHTDSPYIRALGFMYIRYTQPPTDLWDWFESFLDDEEDLDVKAGGGCVMTIGEMLRSFLTKLEWFSTLFPRIPVPVQKNIDQQIKTRPRKIKKDGKEGIEEIDRHVERRRSRSPRRSLSPRRSPRRSRSRSHHREGHGSSSFDRELEREKERQRLEREAKEREKERRRSRSIDRGLDRRRSRSRERHRSRSRSRDRKGDRRDRDREREKENERGRRRDRDYDKERGSDRERDRERSRERSKEQRSRGDGEEKKHKEDKEDRRHRDDKKESKKKHSRSRSRERKHRSRSRNAGKRSRSRSKDKSSRHKNESKEKANKRSRSGSQGRTGSVEKRKREHSPSREKSRKRSRSQDRSHKREHNDSKDQSDRQDHQSSQSGEPESQEKEHKSKDETV
